The values that follow are results of earlier work, collected in article PMC10581250.

The term Ki denotes a dissociation constant, usually derived from enzyme kinetics or from competition with a known ligand. A word on the Kd: it is the concentration at which binding is half-saturated.

Data set [1] concerns the target OdhA (E1oE2o subunit) (Corynebacterium glutamicum) (UniProt Q8NRC3).
The target in data set [2] is OdhA (Corynebacterium glutamicum) (UniProt Q8NRC3). Nature of the data set: surface plasmon resonance. A general note: In SPR one partner is held on a chip, and binding of the other changes the refractive index at the surface.
In data set [3] the target is KGD (Mycobacterium smegmatis) (UniProt A1KI36).
Chain of UniProt A1KI36 (A1KI36 whole entry): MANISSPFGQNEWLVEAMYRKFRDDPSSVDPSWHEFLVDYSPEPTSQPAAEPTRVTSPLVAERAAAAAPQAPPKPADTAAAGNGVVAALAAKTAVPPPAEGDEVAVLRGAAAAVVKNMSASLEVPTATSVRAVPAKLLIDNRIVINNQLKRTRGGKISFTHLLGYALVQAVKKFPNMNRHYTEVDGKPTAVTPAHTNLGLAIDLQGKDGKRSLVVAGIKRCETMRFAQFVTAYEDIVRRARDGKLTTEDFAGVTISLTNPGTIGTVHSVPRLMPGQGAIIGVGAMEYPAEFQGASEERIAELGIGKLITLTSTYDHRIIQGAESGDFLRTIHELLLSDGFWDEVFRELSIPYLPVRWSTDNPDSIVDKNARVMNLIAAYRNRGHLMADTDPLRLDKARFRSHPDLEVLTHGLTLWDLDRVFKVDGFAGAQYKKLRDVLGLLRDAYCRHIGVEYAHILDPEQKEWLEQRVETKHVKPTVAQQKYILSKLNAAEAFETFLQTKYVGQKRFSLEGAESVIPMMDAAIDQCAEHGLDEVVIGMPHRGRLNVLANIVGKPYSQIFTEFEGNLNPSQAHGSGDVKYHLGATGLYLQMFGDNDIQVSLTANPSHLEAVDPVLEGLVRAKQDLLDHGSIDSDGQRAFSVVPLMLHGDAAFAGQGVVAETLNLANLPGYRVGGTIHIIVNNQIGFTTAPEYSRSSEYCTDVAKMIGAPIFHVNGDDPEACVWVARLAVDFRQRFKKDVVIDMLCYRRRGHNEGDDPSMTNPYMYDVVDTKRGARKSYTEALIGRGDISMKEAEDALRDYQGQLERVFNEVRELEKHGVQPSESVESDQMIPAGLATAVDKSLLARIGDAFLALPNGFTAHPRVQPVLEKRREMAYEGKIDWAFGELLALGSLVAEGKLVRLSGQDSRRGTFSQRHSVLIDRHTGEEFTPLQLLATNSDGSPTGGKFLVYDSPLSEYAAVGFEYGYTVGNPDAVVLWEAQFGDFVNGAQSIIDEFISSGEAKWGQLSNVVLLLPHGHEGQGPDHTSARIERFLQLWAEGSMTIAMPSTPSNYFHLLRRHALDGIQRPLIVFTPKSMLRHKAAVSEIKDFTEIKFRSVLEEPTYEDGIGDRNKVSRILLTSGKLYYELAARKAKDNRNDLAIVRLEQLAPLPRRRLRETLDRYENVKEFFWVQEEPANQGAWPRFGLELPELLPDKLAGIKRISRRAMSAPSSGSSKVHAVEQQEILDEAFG

For the substance OdhI (from UniProt Q8NQJ3), the Ki in data set [1] is 2.4 nM. In addition, in data set [2], the dissociation constant (Kd) was 13.8 nM. Take GarA (from UniProt P9WJA9): the Kd in data set [3] is 1920 nM.
